# Experiments:
# TGFβ1 (R&D systems) = TGFβ1 (R&D systems) (UniProt P01137); test: cell-based or functional assay
# [1] = target: IL2Rβ and common γ chain (on 32Dβ cells); test: cell-based or functional assay
# Sequence of UniProt P01137 (P01137 279-390 limits assumed): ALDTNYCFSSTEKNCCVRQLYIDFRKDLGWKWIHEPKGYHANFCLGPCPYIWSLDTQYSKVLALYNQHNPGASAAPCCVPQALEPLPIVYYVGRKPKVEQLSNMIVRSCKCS
"IC50, inhibition of TGFβ1 activity in HEK-Blue TGFβ cells (QUANTI-Blue OD 620-655 nM) (TGFβ1 (R&D systems))","EC50, 32Dβ cell proliferation (WST1, absorbance 450 nM) [1]",Substance
0.461 nM,,TGFR-Fc (R&D Systems) (from UniProt P37173 24-159) (Fc fusion)
,0.0106 nM,recombinant IL-15 (from UniProt P40933 49-162) (ligand)

# Source: patent US20260137759A1
